In patent US20220251546:

Target: T1, IFIT5 (rhIFIT5) (Homo sapiens) (UniProt Q13325)
T1 sequence: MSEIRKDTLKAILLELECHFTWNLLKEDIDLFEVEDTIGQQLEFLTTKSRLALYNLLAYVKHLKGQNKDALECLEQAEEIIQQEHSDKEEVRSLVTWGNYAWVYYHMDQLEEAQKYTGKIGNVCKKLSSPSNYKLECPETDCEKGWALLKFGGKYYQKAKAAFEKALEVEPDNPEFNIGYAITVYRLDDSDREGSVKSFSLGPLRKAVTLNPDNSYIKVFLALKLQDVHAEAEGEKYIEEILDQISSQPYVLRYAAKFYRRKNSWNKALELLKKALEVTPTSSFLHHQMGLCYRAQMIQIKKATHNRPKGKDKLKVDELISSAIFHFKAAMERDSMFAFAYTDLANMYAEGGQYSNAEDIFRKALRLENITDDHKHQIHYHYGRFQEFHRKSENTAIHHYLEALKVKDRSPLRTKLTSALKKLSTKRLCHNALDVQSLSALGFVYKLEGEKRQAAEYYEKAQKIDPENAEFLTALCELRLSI
Test: pulldown
Conditions: 5'-triphosphate; approx. 10-fold enrichment vs 16S rRNA, over 20-fold vs 23S rRNA by RT-qPCR

Listeria Lmo2210 mRNA and LhrC sRNA was tested. Which binding signal did it give?
The binding signal was 10 fold.
